Target: T1, Alexa Fluor 546 labelled PRDX1 (UniProt Q06830 1-199, Alexa Fluor 546 label (site not stated))
T1 sequence (looked up): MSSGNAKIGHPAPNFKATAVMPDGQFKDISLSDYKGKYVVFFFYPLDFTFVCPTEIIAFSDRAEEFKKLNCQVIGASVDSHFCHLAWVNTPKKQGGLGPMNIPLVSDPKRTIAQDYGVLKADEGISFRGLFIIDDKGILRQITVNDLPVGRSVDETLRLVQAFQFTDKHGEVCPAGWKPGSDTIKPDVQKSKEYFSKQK
Assay: other fluorescence titration

B1: RAD51 labelled with the QSY 35 quencher (natural protein, UniProt Q06609 1-339, looked up)
chain: MAMQMQLEANADTSVEEESFGPQPISRLEQCGINANDVKKLEEAGFHTVEAVAYAPKKELINIKGISEAKADKILAEAAKLVPMGFTTATEFHQRRSEIIQITTGSKELDKLLQGGIETGSITEMFGEFRTGKTQICHTLAVTCQLPIDRGGGEGKAMYIDTEGTFRPERLLAVAERYGLSGSDVLDNVAYARAFNTDHQTQLLYQASAMMVESRYALLIVDSATALYRTDYSGRGELSARQMHLARFLRMLLRLADEFGVAVVITNQVVAQVDGAAMFAADPKKPIGGNIIAHASTTRLYLRKGRGETRICKIYDSPCLPEAEAMFAINADGVGDAKD
modifications: QSY 35 quencher label (site not stated)
apparent KD (first of two): 140 nM | apparent KD (second of two): 610 nM

Source: paper PMC9450138 (Redox Biology, 2022)
